Source: paper PMC6565636, “Rif1 promotes association of G-quadruplex (G4) by its specific G4 binding and oligomerization activities”

Experiments:
[1] = molecular target: T1, Rif1 full-length (His6-Rif1-FLAG3) (Schizosaccharomyces pombe (fission …, UniProt Q96UP3 1-1400)); assay: EMSA; KCl; EMSA with oligos heat-denatured and renatured in 50 mM KCl/40% PEG200 (Fig 5: 50 mM Tris-HCl pH 7.5 with KCl, NaCl or none); gel shift buffer 40 mM Hepes-KOH pH 7.6, 50 mM KCl, 1 mM EDTA, 10% glycerol, 0.01% Triton X-100; pull-down 30 min at room temperature; +++/++/+ = >50/>16/>6% shift at 1 nM Rif1; settings: protein: recombinant, tags: N-term His6, C-term FLAG3, label: 32P
T1 sequence: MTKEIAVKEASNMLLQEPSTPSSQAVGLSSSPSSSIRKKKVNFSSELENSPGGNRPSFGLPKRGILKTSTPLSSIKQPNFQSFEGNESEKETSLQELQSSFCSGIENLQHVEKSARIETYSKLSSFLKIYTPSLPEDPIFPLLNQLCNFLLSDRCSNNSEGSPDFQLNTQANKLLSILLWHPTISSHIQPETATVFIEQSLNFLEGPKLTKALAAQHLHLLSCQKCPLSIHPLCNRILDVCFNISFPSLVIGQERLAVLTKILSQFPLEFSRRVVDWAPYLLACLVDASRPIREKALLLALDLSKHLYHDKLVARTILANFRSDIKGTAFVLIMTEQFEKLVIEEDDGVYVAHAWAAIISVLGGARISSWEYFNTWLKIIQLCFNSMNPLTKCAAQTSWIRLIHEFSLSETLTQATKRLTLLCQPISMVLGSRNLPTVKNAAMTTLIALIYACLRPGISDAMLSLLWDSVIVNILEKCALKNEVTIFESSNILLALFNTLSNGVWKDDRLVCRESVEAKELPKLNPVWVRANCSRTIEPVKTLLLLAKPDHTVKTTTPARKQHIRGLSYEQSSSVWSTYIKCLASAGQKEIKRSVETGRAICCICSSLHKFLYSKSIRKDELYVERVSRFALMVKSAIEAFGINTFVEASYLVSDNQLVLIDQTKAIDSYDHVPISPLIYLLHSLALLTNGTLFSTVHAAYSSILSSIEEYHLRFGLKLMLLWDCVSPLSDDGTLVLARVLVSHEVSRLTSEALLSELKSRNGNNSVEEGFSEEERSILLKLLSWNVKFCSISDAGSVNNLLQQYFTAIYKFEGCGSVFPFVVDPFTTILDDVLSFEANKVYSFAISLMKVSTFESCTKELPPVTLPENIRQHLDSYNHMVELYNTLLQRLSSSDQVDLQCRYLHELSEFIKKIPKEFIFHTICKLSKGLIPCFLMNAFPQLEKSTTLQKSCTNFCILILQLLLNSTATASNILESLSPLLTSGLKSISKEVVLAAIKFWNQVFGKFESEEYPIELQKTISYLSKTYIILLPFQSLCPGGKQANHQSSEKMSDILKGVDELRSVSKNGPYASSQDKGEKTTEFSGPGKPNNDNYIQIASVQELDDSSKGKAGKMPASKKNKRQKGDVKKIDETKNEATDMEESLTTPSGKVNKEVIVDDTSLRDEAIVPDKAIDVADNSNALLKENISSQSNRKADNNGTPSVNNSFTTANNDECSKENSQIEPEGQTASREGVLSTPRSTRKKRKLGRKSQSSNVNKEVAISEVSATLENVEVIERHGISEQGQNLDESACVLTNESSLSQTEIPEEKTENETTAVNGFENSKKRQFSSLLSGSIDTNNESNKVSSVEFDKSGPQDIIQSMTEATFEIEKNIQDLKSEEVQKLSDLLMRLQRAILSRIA

[2] = molecular target: T1, Rif1 full-length (His6-Rif1-FLAG3); assay: EMSA; as efficient as or slightly better than AGTGn; EMSA with oligos heat-denatured and renatured in 50 mM KCl/40% PEG200 (Fig 5: 50 mM Tris-HCl pH 7.5 with KCl, NaCl or none); gel shift buffer 40 mM Hepes-KOH pH 7.6, 50 mM KCl, 1 mM EDTA, 10% glycerol, 0.01% Triton X-100; pull-down 30 min at room temperature; +++/++/+ = >50/>16/>6% shift at 1 nM Rif1; settings: protein: recombinant, tags: N-term His6, C-term FLAG3, label: 32P
[3] = molecular target: T1, Rif1 full-length (His6-Rif1-FLAG3); assay: EMSA; KCl; three repeats most efficient; EMSA with oligos heat-denatured and renatured in 50 mM KCl/40% PEG200 (Fig 5: 50 mM Tris-HCl pH 7.5 with KCl, NaCl or none); gel shift buffer 40 mM Hepes-KOH pH 7.6, 50 mM KCl, 1 mM EDTA, 10% glycerol, 0.01% Triton X-100; pull-down 30 min at room temperature; +++/++/+ = >50/>16/>6% shift at 1 nM Rif1; settings: protein: recombinant; tags: N-term His6, C-term FLAG3; label: 32P

TAGGGGGGTTAGGGTTAGGG (structured_DNA) [Htelo1_no_spacer]
binding result ([1]; parallel G4): binds

AGTGGG (ssDNA)
binding result [1]: no binding

ACAGGGG (structured_DNA)
binding result [2]: binds

GGGGTGGGAGGAGGGT (structured_DNA) [93del]
binding result ([1]; parallel G4 (dimeric)): binds

AGTGGGGAGTGGGG (structured_DNA) [(AGTGGGG)2]
binding result [1]: binds

AGGGTTAGGGAGGGAGGGTGG (structured_DNA) [CEB1_TTA]
binding result ([1]; parallel G4 in KCl): binds

TAGGGTTAGGGTTAGGGGGG (structured_DNA) [Htelo1_no_spacer_2]
binding result ([1]; mix G4 in KCl, antiparallel in NaCl): binds

AGTGGGGGAGTGGGGGAGTGGGGG (structured_DNA) [(AGTGGGGG)3]
binding result [3]: binds

AGGGTAGGGAGGGAGGGTGG (structured_DNA) [CEB1_TA]
binding result ([1]; parallel G4 in KCl): binds

AGTGGGAGTGGG (structured_DNA) [(AGTGGG)2]
binding result [1]: binds

TAGGGAGGGTTAGGGTTAGGG (structured_DNA) [Htelo1_A]
binding result ([1]; hybrid or mix G4): no binding

ATCTGAGAATCAGAT (structured_DNA) [DX2]
binding result ([1]; hairpin): no binding

TTGGGGGTGGGTGGGTGGGT (structured_DNA) [T95_2T_GG]
binding result ([1]; parallel G4): no binding

TGAGGGTGGTGAGGGTGGGGA (structured_DNA) [Pu24T]
binding result ([1]; parallel G4): binds

AGTGGGGAGTGGGGAGTGGGGAGTGGGG (structured_DNA) [(AGTGGGG)4]
binding result [1]: binds

TTTTTTGAGAGAGAGAGAGAGAGAGAGAGA (ssDNA) [T6(GA)12]
binding result ([1]; no G4): no binding

ACAGGGGACAGGGGACAGGGG (structured_DNA) [(ACAGGGG)3]
binding result [2]: binds

AGGGCTAGGGCTAGGGCTAGGG (structured_DNA) [Htelo4]
binding result ([1]; antiparallel G4 (chair)): no binding

AGTGGGGGAGTGGGGGAGTGGGGGAGTGGGGG (structured_DNA) [(AGTGGGGG)4]
binding result [1]: binds

AGGGCTAGGGCTACTAGGGCTAGGG (structured_DNA) [Htelo4_3nt_spacer]
binding result ([1]; antiparallel G4): no binding

AGGGGGGAGGGAGGGT (structured_DNA) [CEB1_deltaGG]
binding result ([1]; parallel G4): binds

AGTGGGAGTGGGAGTGGG (structured_DNA) [(AGTGGG)3]
binding result [3]: binds

ACAGGGGG (structured_DNA)
binding result ([2]; slow-migrating multimers): binds

AGGGGGGAGGGAGGGTGG (structured_DNA) [CEB1]
binding result ([1]; parallel G4 (dimeric)): binds

AGGGAGGGAGGGAGGGTGG (structured_DNA) [CEB1_A]
binding result ([1]; parallel G4): binds

TTGGGGTGGGTGGGTGGGT (structured_DNA) [T95_2T_G]
binding result ([1]; parallel G4): no binding

AGGGCTAGGGCTACTAGGGGGG (structured_DNA) [Htelo4(GGGGGG)_3nt_spacer]
binding result ([1]; hybrid G4 in KCl, antiparallel in NaCl): binds

AGTGGGGGAGTGGGGG (structured_DNA) [(AGTGGGGG)2]
binding result [1]: binds

AGTGGGAGTGGGAGTGGGAGTGGG (structured_DNA) [(AGTGGG)4]
binding result [1]: binds

TTGGGTTAGGGTTAGGGTTAGGGA (structured_DNA) [HT]
binding result ([1]; hybrid G4): no binding

GGGTTAGGGTTAGGGTTAGGGT (structured_DNA) [Htelo3]
binding result ([1]; hybrid G4 in K+ (CD)): no binding

AGGGCTAGGGCTAGGGGGG (structured_DNA) [Htelo4(GGGGGG)]
binding result ([1]; hybrid G4): binds

AGTGGGGAGTGGGGAGTGGGG (structured_DNA) [(AGTGGGG)3]
binding result [3]: binds

B1: Rif1-8 (70 nt) (structured_DNA)
DNA: GTGGGGGATGTGGGATAGACTATTTTAGACTTGAGACTGTGTATTCACTTAAAAGTGCTATGTGGGGGCA
binding result ([1]; parallel G4): binds

B2: DX1 (dsDNA)
DNA 1: CGCGAATTCGCG
DNA 2: CGCGAATTCGCG
binding result ([1]; blunt, self-complementary): no binding

ACAGGGGGACAGGGGGACAGGGGG (structured_DNA) [(ACAGGGGG)3]
binding result [2]: binds
